*: point of attachment. Biotin = O=C1N[C@H]2[C@H](CS[C@H]2CCCCC(=O)*)N1; Ahx = NCCCCCC(=O)O
Biological target: T1, recombinant, soluble extracellular b1b2 domain of human NRP1, wild type (residues 274-584) (human, UniProt O14786 274-584)
T1 sequence: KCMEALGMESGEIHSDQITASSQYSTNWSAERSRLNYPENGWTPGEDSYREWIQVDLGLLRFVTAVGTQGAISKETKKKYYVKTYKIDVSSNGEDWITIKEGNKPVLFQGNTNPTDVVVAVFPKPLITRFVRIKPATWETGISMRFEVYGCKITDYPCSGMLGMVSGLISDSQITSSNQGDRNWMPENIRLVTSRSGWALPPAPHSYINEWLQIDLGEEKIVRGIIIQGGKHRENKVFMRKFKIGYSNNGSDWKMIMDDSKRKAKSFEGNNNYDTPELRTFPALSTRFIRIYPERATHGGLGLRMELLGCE

B1: biotin-Ahx-RPARPAR-OH, prototypic NRP1-binding CendR peptide, on silver nanoparticles (AgNP-CendR) (peptide)
peptide: {Biotin-Ahx}-RPARPAR-OH
modifications: also: on silver nanoparticles
B1: binds.

Reference: article doi:10.1101/2020.06.07.137802 (bioRxiv, 2020)
